Data set [1] deals with Aβ17-23 (LVFFAED) peptide.
For data set [2], the system named is βCTF-FLAG (recombinant β-secretase cleaved APP C-terminal fragment).
The test system of data set [3] is βCTFΔ (Aβ17-23 deleted form of βCTF).

The values below come from patent US20100285988.

For “γ-secretase (human; HeLa cell membrane / solubilized HeLa membrane; endogenous in HEK293 cells)”, the “potency on Notch cleavage relative to APP-derived substrates” value in data set [1] is given as “the potency of this peptide is 6-fold less potent in the proteolytic cleavage of Notch by γ-secretase than that of APP-derived substrates”. For the same substance, in data set [2], the Vmax entry is “Vmax values are 16±1 and 215±24 min^-1 µg^-1 for βCTF and βCTFΔ, respectively”; the “apparent Km (Aβ40 production, ECL)” value is recorded as “the apparent Km is 0.47±0.09 µM for βCTF”; the “rate of γ-secretase hydrolysis (X40 product, ECL) relative to αCTF-FLAG” value is “The rate of γ-secretase hydrolysis of βCTF-FLAG is 12-fold greater than for hydrolysis of αCTF-FLAG”. Moreover, in data set [3], the Vmax result is “Vmax values are 16±1 and 215±24 min^-1 µg^-1 for βCTF and βCTFΔ, respectively”; the “Vmax/Km or kcat/Km relative to βCTF” value was “is 42-fold greater than for the βCTF substrate”; the “apparent Km (Aβ40 production, ECL)” value was 0.26±0.09 µM for βCTFA.
